The target in test [1] is CD28/GFP fusion protein on transfected HEK293T cells (UniProt P10747). Description: flow cytometry contour plot, CD28/GFP cells co-incubated with B7-2C/Cherry cells, no peptide (negative control). A general note: A flow cytometer gives signals particle by particle.
The target is the same in test [2]. Description: competition: flow cytometry contour plot, CD28/GFP cells co-incubated with B7-2/Cherry cells in the presence of p2TA at 1 µg ml-1 (16.0 % without peptide, Fig. 6D).
For a further test, the target named is CD28-Fc (human) (UniProt P10747). Description: not stated at that place; binding to human CD28 (SPR with CD28-Fc is the only affinity experiment of the filing).
The target of test [3] is CD28/GFP fusion protein on transfected HEK293T cells (UniProt P10747). Description: competition: flow cytometry contour plot, CD28/GFP cells co-incubated with B7-2/Cherry cells in the presence of p2TA at 0.3 µg ml-1 (16.0 % without peptide, Fig. 6D).

On to “B7-2C/Cherry fusion protein on transfected HEK293T cells (from UniProt P42081 24-329) (ligand)”, for which the percent double labeled cells (upper right quadrant) in test [1] came to 1.5%.
Consider (D-Ala)-p2TA-(D-Ala) (peptide), for which the percent double labeled cells (upper right quadrant) at 1 µg ml-1 p2TA in test [2] is 8.1%. Besides, the Kd with CD28-Fc (human) came to 2 µM. For the same substance, in test [3], the percent double labeled cells (upper right quadrant) at 0.3 µg ml-1 p2TA was found to be 10.3%.

One may read the Kd as a measure of binding affinity in units of concentration. High values mean weaker binding, low ones tighter binding.

Values taken from patent US20180215804A1.
